# From patent publication US20110159513A1
# Where two headings read alike, the source gives them in different places.
# B1: amphiregulin (ligand, UniProt P15514 101-198, looked up)
# chain: SVRVEQVVKPPQNKTESENTSDKPKRKKKGGKNGKNRRNRKKKNPCNAEFQNFCIHGECKYIEHLEAVTCKCQQEYFGERCGEKSMKTHSMIDSSLSK
# B2: Epigen (ligand, UniProt Q6UW88 23-104, looked up)
# chain: AAVTVTPPITAQQGNWTVNKTEADNIEGPIALKFSHLCLEDHNSYCINGACAFHHELEKAICRCFTGYTGERCEHLTLTSYA
# B3: heregulin HRG1-β (ligand, UniProt Q02297-6 177-241, looked up)
# chain: SHLVKCAEKEKTFCVNGGECFMVKDLSNPSRYLCKCPNEFTGDRCQNYVMASFYKHLGIEFMEAE
# Tests used:
# Experiment in all cases: cell-based or functional assay
# [1] = target: ErbB1 on NCI-ADRr cells (UniProt P00533)
# [2] = target: ErbB1 on NCI-ADRr cells (UniProt P00533); remark: listed apart in the source
# [3] = target: ErbB3 on tumour cells (NCI-ADRr, OVCAR8, OVCAR8-HER2) (UniProt P21860)
Molecule,"pErbB1 EC50 [nM], NCI-ADRr [1]",pErbB1 % stimulation at 5 min relative to maximum [2],also measured
betacellulin (from UniProt P35070 32-111) (ligand),5.7 nM,–,–
transforming growth factor alpha (from UniProt P01135 40-89) (ligand),30 nM,–,–
heparin-binding epidermal growth factor (from UniProt Q99075 63-148) (ligand),21 nM,–,pErbB1 % stimulation at 5 min relative to maximum [1]: 87%
B1,–,95%,"pErbB1 EC50 [nM], NCI-ADRr [2]: 37 nM"
B2,–,12%,–
B3,–,–,"pErbB3 % stimulation at 5 min relative to maximum [3]: 100%; pErbB3 EC50 [nM], NCI-ADRr [3]: 9.9 nM"
